Experimental data: patent US20220064648
Like-named read-outs stand apart in the source and are kept apart here.

Assays:
[1] = target: SNAP25 full length (Homo sapiens) (UniProt P60880); conditions: W indole-dU, X amine-dU, direct ELISA signal
[2] = system: Negative control random peptide; assay: ELONA; conditions: W indole, X amine

Sequence of SNAP25 full length (Homo sapiens) (P60880 whole entry): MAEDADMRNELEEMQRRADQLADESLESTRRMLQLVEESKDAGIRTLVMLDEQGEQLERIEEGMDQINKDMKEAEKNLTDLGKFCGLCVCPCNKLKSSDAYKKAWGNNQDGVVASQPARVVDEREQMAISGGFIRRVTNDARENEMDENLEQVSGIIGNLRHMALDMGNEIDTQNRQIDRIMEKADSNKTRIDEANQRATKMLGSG

TTTTTAACACGACGTTACTGTGGTCACCACAGGATGAGGCTGTCGTGCCATG [PEP 2.17]
binding signal ([1]; Y phenol-dU [phenol-dU@15,19,35,46, indole-dU@16,24, amine-dU@43], negative peptide 12): 2

TTTTTAACACGACAGCCCTGTGCAGGCCGAACGGCGTTGATGTCGTGCCATG [PEP 4.12]
binding signal ([1]; Y phenol-dU [19,46 phenol-dU, 38 indole-dU, 43 amine-dU], negative peptide 3): 0

TTTTTAACACGACATAGGTTCGCTGGTCACAGAATGTTGTGGTGGGCCCATG [PEP 2.09]
binding signal ([1]; Y phenol-dU [15,19,20,24,27,35,38,40], negative peptide 5): 9

TTTTTAACACGACGTTACTGTGGTCACCACAGGATGAGCCTGTCGTGCCATG [PEP 2.01]
binding signal ([2]; Y phenol modified dU [15,16,19,24,35,43,46]): 204 ELISA signal

TTTTTAAGCCCACGTTTGTTCGGTGGTCACAGCACGCCACGGTCGTGCCATG [PEP 2.08]
binding signal ([1]; Y phenol-dU [15,16,17,19,20,24,27,43,46], negative peptide 9): 8

TTTTTAAGCCCACCTCACTGTGCAAGTCACAGGTCGGCACCGTGGGCCCATG [PEP 3.23]
binding signal ([1]; Y phenol-dU [15,19,34 (phenol-dU), 27 (amine-dU)], negative peptide 35): 5

TTTTTAACACGACCATTCTGTGCCAGCCGAACTCCGTGCTGGTGGGCCCATG [PEP 4.08]
binding signal ([1]; Y phenol-dU [16,17,40 indole-dU, 19 phenol-dU], negative peptide 5): 9

TTTTTAACACGACTGCACTGTGAATCTCGAACGCATCGGGAGTCGTGCCATG [PEP 3.15]
binding signal ([1]; Y phenol-dU [14,25,27,43 (amine-dU), 19,46 (phenol-dU), 36 (indole-dU)], negative peptide 39): 9

TTTTTAAGCCCACGGCCGTTCGGCCACCACAGTGTGGCAGCGTCGTGCCATG [PEP 4.13]
binding signal ([1]; Y phenol-dU [19 indole-dU, 20,35,46 phenol-dU, 43 amine-dU], negative peptide 0): 0

TTTTTAAGCCCACCTGACTGTGGTGGGCACAGTTCGCCATCGTGGGCCCATG [PEP 1.14]
binding signal ([1]; Y phenol-dU [15 phenol-dU, 19 phenol-dU, 24 indole-dU, 34 phenol-dU, 40 indole-dU], negative peptide 5): 2

TTTTTAACACGACATATGTTCGACGGACACAGTGTGTGGCGGTCGTGCCATG [PEP 4.09]
binding signal ([2]; Y phenol modified dU [15,17,19,20,35,43,46]): 0 ELISA signal

TTTTTAACACGACATCACTGTGGAAGACACAGGACGTGCGTGTCGTGCCATG [PEP 3.22]
binding signal ([1]; Y phenol-dU [15,19,46 (phenol-dU), 43 (amine-dU)], negative peptide 26): 7

TTTTTAAGCCCACCAGGGTTCGGGAGCCGAACGCCAGCACTGTCGTGCCATG [PEP 3.24]
binding signal ([1]; Y phenol-dU [19 (indole-dU), 20,46 (phenol-dU), 43 (amine-dU)], negative peptide 22): 5

TTTTTAACACGACATAGCTGTGACAGGCACAGGTCATGGGAGTCGTGCCATG [PEP 1.19]
binding signal ([1]; Y phenol-dU [phenol-dU @15,19,34,46, amine-dU @43], negative peptide 3): 0

TTTTTAAGCCCACCCGAGTTCGTCCAGCGAACCACGCGCGTGTCGTGCCATG [PEP 4.11]
binding signal ([2]; Y phenol modified dU [19,20,23,43,46]): 0 ELISA signal

TTTTTAAGCCCACAAGCGTTCGGCTCTCATAGATCGTTGACGTGGGCCCATG [PEP 4.19]
binding signal ([1]; Y phenol-dU [19,20,25,27,34,38], negative peptide 0): 0

TTTTTAACACGACGCTCCTGTGACAGCCGAACATCATTGGTGTCGTGCCATG [PEP 1.04]
binding signal ([1]; Y phenol-dU [16 indole-dU, 19 phenol-dU, 34 phenol-dU, 38 indole-dU, 43 amine-dU, 46 phenol-dU], negative peptide 4): 5

TTTTTAAGCCCACTGGCCTGTGGTCAGCGAACTGTGCGCTGGTGGGCCCATG [PEP 2.10]
binding signal ([1]; Y phenol-dU [14,19,24,35,40], negative peptide 2): 7

TTTTTAAGCCCACTTGGCTGTGCACATCACAGAACAAGCAGGTGGGCCCATG [PEP 2.11]
binding signal ([1]; Y phenol-dU [14,15,19,27], negative peptide 2): 0

TTTTTAAGCCCACGGGTCTGTGGTCACCGAACGACGTGGCAGTGGGCCCATG [PEP 2.14]
binding signal ([1]; Y phenol-dU [17,19,24], negative peptide 7): 2

TTTTTAACACGACGTTACTGTGGTCACCACAGGATGAGCTTGTCGTGCCATG [PEP 2.15]
binding signal ([1]; Y phenol-dU [15,16,19,24,35,40,43,46], negative peptide 9): 0

TTTTTAACACGACCATCCTGTGCCTCACGAACTCATTGCCCGTCGTGCCATG [PEP 1.02]
binding signal ([2]; Y phenol modified dU [16,19,25,36,43,46]): 15 ELISA signal

TTTTTAAGCCCACATGCCTGTGGTCATCGAACATTGGGCCGGTCGTGCCATG [PEP 2.13]
binding signal ([1]; Y phenol-dU [15,19,24,27,34,35,43,46], negative peptide 11): 0

TTTTTAACACGACAGCACTGTGCACAGCACAGCTCAAGGGTGTGGGCCCATG [PEP 3.10]
binding signal ([1]; Y phenol-dU [phenol-dU@19,34], negative peptide 51): 10

TTTTTAAGCCCACGGTGCTGTGGAAGCCACAGTACAATGGAGTGGGCCCATG [PEP 4.22]
binding signal ([1]; Y phenol-dU [16,19,38], negative peptide 3): 5

TTTTTAACACGACGCCAGTTCGAAGGTCACAGTTATTTGGCGTCGTGCCATG [PEP 1.11]
binding signal ([1]; Y phenol-dU [19 indole-dU, 20 phenol-dU, 27 amine-dU, 34 phenol-dU, 36 indole-dU, 38 indole-dU, 43 amine-dU, 46 phenol-dU], negative peptide 11): 4

TTTTTAACACGACGTGACTGTGAGAGGCACAGTTTGGGGGCGTGGGCCCATG [PEP 4.15]
binding signal ([1]; Y phenol-dU [15,19,34,35 phenol-dU], negative peptide 7): 4

TTTTTAACACGACTTGGGTTCGGAAGGCGAACCGCAGCAATGTGGGCCCATG [PEP 1.22]
binding signal ([1]; Y phenol-dU [amine-dU @14, phenol-dU @15,20, indole-dU @19], negative peptide 2): 8

TTTTTAAGCCCACTTCACTGTGGCTCGCACAGGCCGATGGGGTCGTGCCATG [PEP 1.23]
binding signal ([1]; Y phenol-dU [amine-dU @14,25,43, phenol-dU @15,19,46, indole-dU @38], negative peptide 0): 0

TTTTTAACACGACGTTACTGTGGTCATCACAGGATGAGCCTGTCGTGCCATG [PEP 2.18]
binding signal ([1]; Y phenol-dU [phenol-dU@15,19,35,46, indole-dU@16,24, amine-dU@27,43], negative peptide 9): 0

TTTTTAAGCCCACATAGGTTCGGTGGTCACAGTGTGGTGCGGTGGGCCCATG [PEP 2.16]
binding signal ([1]; Y phenol-dU [15,19,20,24,27,35,38], negative peptide 5): 4

TTTTTAAGCCCACACGTGTTCGGATCGCACAGTTATTGGCAGTCGTGCCATG [PEP 4.20]
binding signal ([1]; Y phenol-dU [17,19,20,25,34,36,43,46], negative peptide 3): 4

TTTTTAACACGACGTCGCTGTGGTCAACGAACAGATACAACGTCGTGCCATG [PEP 2.07]
binding signal ([1]; Y phenol-dU [15,19,24,36,43,46], negative peptide 17): 8

TTTTTAACACGACAGCACTGTGGTTCGCGAACCTCAAGCTCGTCGTGCCATG [PEP 3.02]
binding signal ([2]; Y phenol modified dU [19Y,24W,25X,34Y,40W,43X,46Y]): 59 ELISA signal

TTTTTAACACGACACCACTGTGCCCACCACAGTTCACTGAAGTGGGCCCATG [PEP 3.14]
binding signal ([1]; Y phenol-dU [19,34 (phenol-dU), 38 (indole-dU)], negative peptide 52): 8

TTTTTAACACGACCGCCCTGTGGGCAACACAGGGATCTGCAGTCGTGCCATG [PEP 1.24]
binding signal ([1]; Y phenol-dU [phenol-dU @19,46, indole-dU @36,38, amine-dU @43], negative peptide 9): 8

TTTTTAAGCCCACGACACTGTGGCCAACACAGTACATGCATGTGGGCCCATG [PEP 3.07]
binding signal ([1]; Y phenol-dU [phenol-dU@19], negative peptide 64): 10

TTTTTAAGCCCACGGGGCTGTGAGCAACGAACATTGGCACAGTCGTGCCATG [PEP 4.21]
binding signal ([1]; Y phenol-dU [19,34,35,43,46], negative peptide 8): 0

TTTTTAAGCCCACGCCAGTTCGGTCAACGAACTACGGTGATGTGGGCCCATG [PEP 4.17]
binding signal ([1]; Y phenol-dU [19,20,24,38], negative peptide 0): 0

TTTTTAAGCCCACATACGTTCGATGGTCACAGATTGGGCAAGTCGTGCCATG [PEP 2.02]
binding signal ([2]; Y phenol modified dU [15,19,20,24,27,34,35,43,46]): 55 ELISA signal

TTTTTAACACGACTATTCTGTGAGTCTCGAACTGCGACAACGTGGGCCCATG [PEP 4.18]
binding signal ([1]; Y phenol-dU [14,16,17,19,25,27], negative peptide 4): 10

TTTTTAAGCCCACAAAAGTTCGGGCAGCACAGGTCGCTGAGGTCGTGCCATG [PEP 4.14]
binding signal ([1]; Y phenol-dU [19,38 indole-dU, 20,34,46 phenol-dU, 43 amine-dU], negative peptide 15): 2

TTTTTAAGCCCACGGGTGTTCGACAGACACAGCAATACATCGTGGGCCCATG [SNAP.03]
binding signal ([2]; Y phenol modified dU [17,19,20,36,40]): 21 ELISA signal
